Results on 25 molecules are retold here after patent US20240368277A1 (ORIONIS BIOSCIENCES, published 2024).

First the molecules themselves.
B1: 2HSI86 (VHH)
VHH: QVQLQESGGGLVQPGGSLRLSCAASGRTFSSLDMGWFRQAPGKEREFVAGISRSGISQYYADSMKGRFTISRDNAKNLVYLQINSLKPEDTAVYYCAAALTFRGSDLPRDSNYWGQGTQVTVSS
notes: The entry includes the C-terminal AAA linker, HA tag and His6 tag, as expressed from pMECS
B2: 2HSI32 (VHH)
VHH: QVQLQESGGGVVQAGDSLRLSCVASGRTFSSLDMGWFRQAPGKEREFVAGISRTGISAYYADSMKGRFTISRDNAKNLVYLQMNSLKSEDTAVYYCAAALTFRGSDLPRDSNYWGQGTQVTVSS
notes: as for B1
B3: 2HSI89 (VHH)
VHH: QVQLQESGGGVVQAGDSLRLSCVASERTFSSLDMGWFRQAPGKEREFVAGISRSGISQYYADSMKGRFTISRDNAKNLVYLQMNSLKPEDTAVYYCAAALTFRGSNLPRDSNYWGQGTQVTVSS
notes: as for B1
B4: 2HSI35 (VHH)
VHH: QVQLQESGGGLVQPGGSLRLSCAASGFTFGGYDMGWFRQAPGKEREFVAGISRSGISQYYADSMKGRFTISRDNAKNLVYLQMNSLKPEDTAVYYCAAALTFRGSDLPRDSNYWGQGTQVTVSS
notes: as for B1
B5: 2HSI1 (VHH)
VHH: QVQLQESGGGVVQAGDSLRLSCVASGRTFSSLDMGWFRQAPGKEREFVAGISRSGISQYYADSMKGRFTISRDNAKNLVYLQMNSLKPEDTAVYYCAAALTFRGSDLPRDSNYWGQGTQVTVSS
notes: as for B1
B6: 2HSI98 (VHH)
VHH: QVQLQESGGGVVQAGDSLGLSCVASGRTFSSLDMGWFRQAPGKEREFVAGISRSGISQYYADSMKGRFTISRDNAKNLVYLQMNSLKPEDTAVYYCAAALTFRGSDLPRDSNYWGQGTQVTVSS
notes: as for B1
B7: 2HSI31 (VHH)
VHH: QVQLQESGGGVVQAGDSLRLSCVASGRTFSSLDMGWFRQAPGKEREFVAGISRSGISQYYADSMRGRFTISRDNAKNLVYLQMNSLKPEDTAVYYCAAALTFRGSDLPRDSNYWGQGTQVTVSS
notes: as for B1
B8: 2HSI102 (VHH)
VHH: QVQLQESGGGVVQAGDSLRLSCVASGRAFSSLDMGWFRQAPGKEREFVAGISRSGISQYYADSMKGRFTISRDNAKNLVYLQMNSLKPEDTAVYYCAAALTFRGSDLPRDSNYWGQGTQVTVSS
notes: as for B1
B9: 2HSI49 (VHH)
VHH: QVQLQESGGGVVQTGDSLRLSCVASGRTFSSLDMGWFRQAPGKEREFVAGISRSGISQYYADSMKGRFTISRDNAKNLVYLQMNSLKPEDTAVYYCAAALTFRGSDLPRDSNYWGQGTQVTVSS
notes: as for B1
B10: 2HSI24 (VHH)
VHH: QVQLQESGGGVVQAGDSLRLSCVASGRTFSSLDMGWFRQTPGKEREFVAGISRSGISQYYADSMKGRFTISRDNAKNLVYLQMNSLKPEDTAVYYCAAALTFRGSDLPRDSNYWGQGTQVTVSS
notes: as for B1
B11: 2HSI110 (VHH)
VHH: QVQLQESGGGLVQSGDSLRLSCVASGRTFSSLDMGWFRQAPGKEREFVAGISRSGISQYYADSMKGRFTISRDNAKNLVYLQMNSLKPEDTAVYYCAAALTFRGSDLPRDSNYWGQGTQVTVSS
notes: as for B1
B12: 2HSI55 (VHH)
VHH: QVQLQESGGGVVQAGDPLRLSCVASGRTFSSLDMGWFRQAPGKEREFVAGISRSGISQYYADSMKGRFTISRDNAKNLVYLQMNSLKPEDTAVYYCAAALTFRGSDLPRDSNYWGQGTQVTVSS
notes: as for B1
B13: 2HSI54 (VHH)
VHH: QVQLQESGGGVVQAGDSLRLSCVASGRTFSSLDMGWFRQAPGKEREFVAGISRSGISQYYANSMKGRFTISRDNAKNLVYLQMNSLKPEDTAVYYCAAALTFRGSDLPRDSNYWGQGTQVTVSS
notes: as for B1
B14: 2HSI80 (VHH)
VHH: QVQLQESGGGVVQAGDSLRLSCVASGRTFSSLDMGWFRQAPGKEREFVAGVSRSGISQYYADSMKGRFTISRDNAKNLVYLQMNSLKPEDTAVYYCAAALTFRGSDLPRDSNYWGQGTQVTVSS
notes: as for B1
B15: 2HSI109 (VHH)
VHH: QVQLQESGGGSVQAGDSLRLSCVASGRTFSSLDMGWFRQAPGKEREFVAGISRTGISAYYADSMKGRFTISRDNAKNLVYLQMNSLKSEDTAVYYCAAALTFRGSDLPRDSNYWGQGTQVTVSS
notes: as for B1
B16: 2HSI113 (VHH)
VHH: QVQLQESGGGLVQAGDSLRLSCVASGRTFSSLDMGWFRQAPGKEREFVAGISRSGISQYYADSMKGRFTISRDNAKNLVYLQMNSLKPEDTAVYYCAAALTFRGSDLPRDSNYWGQGTQVTVSS
notes: as for B1
B17: 2HSI88 (VHH)
VHH: QVQLQESGGGVVQAGDSLRLSCVASGHTFSSLDMGWFRQAPGKEREFVAGISRSGISQYYADSMKGRFTISRDNAKNLVYLQMNSLKPEDTAVYYCAAALTFRGSDLPRDSNYWGQGTQVTVSS
notes: as for B1
B18: 2HSI90 (VHH)
VHH: QVQLQESGGGVVQAGDSLRLSCVASERTFSSLDMGWFRQAPGKEREFVAGISRSGISQYYADSMKGRFTISRDNAKNLVYLQMNSLKPEDTAVYYCAAALTFRGSDLPRDSNYWGQGTQVTVSS
notes: as for B1
B19: 2HSI3 (VHH)
VHH: QVQLQESGGGVVQAGDSLKLSCVASGRTFSSLDMGWFRQAPGKEREFVAGISRSGISQYYADSMKGRFTISRDNAKNLVYLQMNSLKPEDTAVYYCAAALTFRGSDLPRDSNYWGQGTQVTVSS
notes: as for B1
B20: 2HSI44 (VHH)
VHH: QVQLQESGGGLVQAGGSLRLSCTASGRTFSSLDMGWFRQAPGKEREFVAGISRSGISQYYADSMKGRFTISRDNAKNLVYLQMNSLKPEDTAVYYCAAALTFRGSDLPRDSNYWGQGTQVTVSS
notes: as for B1
B21: 2HSI77 (VHH)
VHH: QVQLQESGGGSVQAGGSLRLSCVASGRTFSSLDMGWFRQAPGKEREFVAGISRSGISQYYADSMKGRFTISRDNAKNLVYLQMNSLKPEDTAVYYCAAALTFRGSDLPRDSNYWGQGTQVTVSS
notes: as for B1
B22: 2HSI68 (VHH)
VHH: QVQLQESGGGWVQPGGSLRLSCEASGRTSSSLDMGWFRQAPGKEREFVAGISRTGISAYYADSMKGRFTISRDNAKNLVYLQMNSLKSEDTAVYYCAAALTFRGSDLPRDSNYWGQGTQVTVSS
notes: as for B1
B23: 2HSI57 (VHH)
VHH: QVQLQESGGGLVQAGGSLRLSCAASGRTFSSLDMGWFRQAPGKEREFVAGISRSGISQYYADSMKGRFTISRDNAKNLVYLQMNSLKPEDTAVYYCAAALTFRGSDLPRDSNYWGQGTQVTVSS
notes: as for B1
B24: 2HSI40 (VHH)
VHH: QVQLQESGGGVVQAGDSLRLSCVASGRTFSSLDMGWFRQAPGKEREFVAGISRSGISQYYADSMKGRFTISRDNAKSLVYLQMNSLKPEDTAVYYCAAALTFRGSDLPRDSNYWGQGTQVTVSS
notes: as for B1
B25: 2HSI105 (VHH)
VHH: QVQLQESGGGVVQAGDSLRLSCVASGRTFSSLDMGWFRQAPGKEREFVAGISRSGISQYYADSMKGRFTISRDNAKNLVYLQMNSLRPEDTAVYYCAAALTFRGSDLPRDSNYWGQGTQVTVSS
notes: as for B1

One test deals with T1, full length human SIRPA expressed on transiently transfected Hek293T cells (pMET7 FLAG-hSIRPA) (human, UniProt P78324 31-504).
T1 construct: whole, on cells; also called human SIRP1α; human SIRPα
T1 sequence (P78324 31-504): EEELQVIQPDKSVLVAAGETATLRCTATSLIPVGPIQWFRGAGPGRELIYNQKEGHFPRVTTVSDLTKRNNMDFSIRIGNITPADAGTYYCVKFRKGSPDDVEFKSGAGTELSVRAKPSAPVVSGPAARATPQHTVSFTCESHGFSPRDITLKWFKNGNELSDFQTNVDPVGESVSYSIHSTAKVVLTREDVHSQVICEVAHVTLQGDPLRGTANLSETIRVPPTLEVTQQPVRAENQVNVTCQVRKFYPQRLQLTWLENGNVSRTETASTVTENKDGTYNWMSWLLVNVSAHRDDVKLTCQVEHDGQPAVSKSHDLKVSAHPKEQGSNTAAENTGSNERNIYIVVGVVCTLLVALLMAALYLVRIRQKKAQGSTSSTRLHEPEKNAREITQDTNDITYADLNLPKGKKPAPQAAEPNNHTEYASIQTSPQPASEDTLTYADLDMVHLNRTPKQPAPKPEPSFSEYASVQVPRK
Briefly: FACS, serial dilution of purified VHH on hSIRPA- or empty vector (MOCK)-transfected Hek293T cells; FITC-coupled anti-HA antibody. As for the experimental part:
Expression-vectors (pMECS) encoding the 27 putative human SIRPA binding VHHs were transformed to WK6 cells. VHHs (with a C-terminal HA and His-tag) were expressed in periplasmic extracts upon IPTG overnight stimulation and purified from the periplasmic extracts using the HisPur Cobalt Spin Plates (ThermoFisher) according to the manufacturer's guidelines. Purified VHHs were applied in a FACS binding-assay at 1 μg/ml: Hek293T cells were transiently transfected with a full length human SIRPA plasmid (pMET7 FLAG-hSIRPA) or an empty vector (MOCK). Two days after transfection, cells were resuspended and incubated with purified VHH in FACS buffer (PBS+0.5 mM EDTA+3% FBS). VHH binding was detected using a FITC-coupled anti-HA Ab (Genscript). Samples were acquired with a MACSQuant X instrument (Miltenyi Biotec) and analyzed using the FlowLogic software (Miltenyi Biotec).
Based on this initial binding-experiment and on the comparison of the 27 sequences, 5 VHHs (4 members of sequence group 1 which encompasses 26 sequences and 2HSI22 which is a unique representative of sequence group 2) were studied in more detail for binding to human SIRPA. Binding in FACS was measured as described above. In brief, hSIRPA or empty vector (MOCK) transfected cells were incubated with a serial dilution of purified VHH and binding detected using a FITC-coupled anti-HA Ab (GenScript). Data are summarized in FIG. 7 and illustrate concentration dependent specific binding to hSIRPA for all 5 VHHs.
As to B1, the binding result is on record as “binds”. Turning to B2, the binding result was “binds”. Same read-out and setting: under B3 stands “binds”. Turning to B4, the binding result is listed as “binds”.

For the next test, the target named is T2, His6-tagged recombinant extracellular domain of human signal regulatory protein alpha (hSIRP1α) (human, UniProt P78324 31-373).
T2 construct: extracellular domain; also called antigen; not shown: His6 tag
T2 sequence (P78324 31-373): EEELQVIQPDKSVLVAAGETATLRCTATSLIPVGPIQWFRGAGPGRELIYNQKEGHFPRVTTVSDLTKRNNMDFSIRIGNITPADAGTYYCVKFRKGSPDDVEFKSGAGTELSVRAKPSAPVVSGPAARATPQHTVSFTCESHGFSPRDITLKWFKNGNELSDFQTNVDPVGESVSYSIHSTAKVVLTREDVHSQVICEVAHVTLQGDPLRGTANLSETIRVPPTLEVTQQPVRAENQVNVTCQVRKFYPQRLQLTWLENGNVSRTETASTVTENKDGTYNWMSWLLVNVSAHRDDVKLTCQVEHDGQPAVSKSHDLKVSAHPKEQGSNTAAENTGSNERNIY
Nature of the test: ELISA, crude periplasmic extracts on coated His6-tagged hSIRP1α extracellular domain. The protocol: The VHH library was panned on solid-phase coated antigen (200 μg/ml in 100 mM NaHCO₃, pH 9.3) for 3 rounds. The enrichment for antigen-specific phages was assessed after each round of panning by comparing the number of phagemid particles eluted from antigen-coated wells with the number of phagemid particles eluted from negative control (uncoated blocked) wells. […] There was no enrichment after the 1st panning round. In total, 190 colonies from panning round 2 were randomly selected and analyzed by ELISA for the presence of antigen-specific VHHs in their periplasmic extracts (ELISA using crude periplasmic extracts including soluble VHHs) (see FIG. 5). The antigens used for panning and ELISA screening were the same as the ones used for immunization, using uncoated blocked wells as negative control. […] Based on sequence data of the positive colonies, 27 different full length VHHs were distinguished (see FIGS. 4A, 4B, and 5 and SEQ ID Nos: 300-326).
A general note: An ELISA detects its analyte on a solid surface through an enzyme-linked reagent.
B5: the binding result is “binds”. For the molecule B1, the binding result is given as “binds”. On to B6, for which the binding result is “binds”. As for B2, the binding result is given as “binds”. B7: the binding result is “binds”. On to B8, for which the binding result is reported as “binds”. With B9, the binding result is “binds”. The same measure, in the same setting: under B3 stands “binds”; under B10, “binds”. On the same count and under the same terms, the result for B11 reads “binds”; that for B12, “binds”.

B13: the binding result is given as “binds”.

On to B14, for which the binding result was “binds”. As for B4, the binding result is reported as “binds”. Turning to B15, the binding result was “binds”. Same read-out and setting: the result for B16 reads “binds”. With B17, the binding result is given as “binds”. For B18, the binding result is listed as “binds”. In the case of B19, the binding result is “binds”. Turning to B20, the binding result was “binds”. B21: the binding result is listed as “binds”. Take B22: the binding result is given as “binds”. For the molecule B23, the binding result is on record as “binds”. Same read-out and setting: the result for B24 reads “binds”. For the molecule B25, the binding result is “binds”.
